{"source": "paper doi:10.1101/435008", "about": "(bioRxiv, 2019)", "target": "the molecule itself", "assay": "SEC", "data": [{"protein": "unphosphorylated kinase domain of With No Lysine(K) kinase-3 (WNK3) (domain or fragment) not shown", "values": [{"measurement": "stoichiometry N", "value": 2}]}]}
